Earlier results in article PMC6691274 (Molecular Medicine Reports, 2019).
Read-outs that look alike come from different tables or passages of the source. Each block holds one substance with its values, some of them ahead of it.

How the values were obtained:
[1] = test system: dipeptidyl-peptidase-IV (DPP-IV)
GLP-1R = molecular target: T1, GLP-1R (Rattus norvegicus, UniProt P32301); settings: INS-1 rat insulinoma xenograft model and rat MI/R model
T1 sequence (P32301 22-463): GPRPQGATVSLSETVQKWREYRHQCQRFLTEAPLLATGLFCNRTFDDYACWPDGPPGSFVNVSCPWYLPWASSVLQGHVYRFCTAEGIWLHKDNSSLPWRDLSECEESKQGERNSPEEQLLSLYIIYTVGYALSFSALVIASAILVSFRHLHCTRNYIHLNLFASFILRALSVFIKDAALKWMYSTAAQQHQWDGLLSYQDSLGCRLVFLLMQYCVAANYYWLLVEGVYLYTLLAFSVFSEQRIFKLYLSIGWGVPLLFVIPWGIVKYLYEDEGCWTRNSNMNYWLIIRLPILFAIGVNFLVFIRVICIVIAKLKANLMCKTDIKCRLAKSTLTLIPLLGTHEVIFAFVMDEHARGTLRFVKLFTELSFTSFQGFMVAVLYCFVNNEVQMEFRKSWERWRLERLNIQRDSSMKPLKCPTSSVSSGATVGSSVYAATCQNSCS

Substance: Exendin-4: an analog of GLP-1 with 53% amino acid homology, resistant to DPP-IV
Stability towards DPP-IV [1]: resistant

Substance: GLP-1: 30-amino-acid-long gut hormone secreted from intestinal endocrine L-cells
Stability towards DPP-IV ([1]; upon being released into the blood): rapidly degraded

Affinity with GLP-1R (GLP-1R): high affinity
Substance: ^18F-4-fluorobenzamido-N-ethylamino-maleimide (FBEM)-Cys^40-exendin-4 [^18F-FBEM-Cys^40-exendin-4]
